Reference: patent US20180355064A1 (GLENMARK PHARMACEUTICALS S A, published 2018)

Target: T1, human CD3 epsilon on HPB-ALL cells (human, UniProt P07766 23-207)
T1 construct: whole, on cells; also called human CD3 epsilon positive T cell tumour line
Experiment: FACS, median fluorescence intensity on HPB-ALL cells
Procedure: HPB-ALL cells (DSMZ, Braunschweig, Germany, Cat. No: ACC483) were used as CD3 positive cell line for FACS staining. […] After washing, cells were incubated with a 1/200 dilution of anti-Human Fc-PE (EBioscience, Vienna, Austria) for 45 min on ice. Cells were then washed again and resuspended in 200 ul FACS buffer.

binding result: no binding
B1: humanized OKT3 prototype antibody VH/VL (antibody, human IgG1, kappa, V domains shown)
VH: EVQLVESGGGLVQPGGSLRLSCAASGYTFTRYTIHWVRQAPGKGLEWVAYINPSRGYTRYADSVKGRFTISADTSKNTAYLQMNSLRAEDTAVYYCARYYDDHYCLDYWGQGTLVTVSS
VL: DIQMTQSPSSLSASVGDRVTITCRASSSVSYVAWYQQKPGKAPKLLIYDTSKLYSGVPSRFSGSRSGTDFTLTISSLQPEDFATYYCQQWSSNPPTFGQGTKVEIKR
